Laboratory results taken from patent publication US20190040130A1 (Alector, published 2019).

T1: human TREM2 expressed on cells (human, UniProt Q9NZC2 19-230)
T1 construct: also called huT2 BW; cell expressed TREM2
T1 sequence: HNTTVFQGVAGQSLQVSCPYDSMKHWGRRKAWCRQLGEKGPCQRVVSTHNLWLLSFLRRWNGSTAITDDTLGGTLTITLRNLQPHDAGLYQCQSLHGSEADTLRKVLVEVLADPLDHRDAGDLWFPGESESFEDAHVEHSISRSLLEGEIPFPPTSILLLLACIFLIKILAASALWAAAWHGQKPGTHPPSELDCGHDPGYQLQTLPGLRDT


Target: T1, human TREM2 expressed on cells
Experiment: FACS, BW cells
Procedure: To examine cell binding of anti-TREM2 antibodies, recombinant, human TREM2-expressing BW5147. G.1.4 cells (ATCC® TIB48™) were established by stably expressing either mouse TREM2 or human TREM2 together with Dap12 using viral infection. Cells were harvested by scraping, washed in PBS, counted and plated on 96-well U bottom plates at 1×10⁵ cells/well. The plates were spun at 1,400 rpm for 3 minutes and primary anti-TREM2 or control antibodies were added in FACS buffer (PBS+2% FBS) and incubated on ice for one hour. Cells were subsequently centrifuged as before and washed thrice with FACS buffer. Cells were then incubated with anti-human PE conjugated secondary antibody (BD Biosciences) in FACS buffer for 30 minutes on ice. Cells were again washed thrice with FACS buffer and analyzed on a BD FACS Canto. Binding was measured as mean fluorescence intensity in the […].

| Binder | Cell binding (FOB) [fold over background] |
| --- | --- |
| AL2p-h77 (antibody, IgG1, V domains shown, IgG1; Fab in monovalent BLI) VH: QVQLVQSGAEVKKPGASVKVSCKASGYAFSSSWMNWVRQAPGQRLEWIGRIYPGDGDTNYAQKFQGRVTITADTSASTAYMELSSLRSEDTAVYYCARLLRNQPGESYAMDYWGQGTLVTVSS VL: DVVMTQSPDSLAVSLGERATINCRSSQSLVHSNGYTYLHWYQQKPGQSPKLLIYKVSNRFSGVPDRFSGSGSGTDFTLTISSLQAEDVAVYYCSQSTRVPYTFGGGTKVEIK | 83 |
| AL2p-h27 (antibody, IgG1, V domains shown, IgG1; Fab in monovalent BLI) VH: QVQLVQSGAEVKKPGASVKVSCKASGYAFSSSWMNWVRQAPGQGLEWIGRIYPGDGDTNYNGEFRVRATLTADTSTSTAYMELSSLRSEDTAVYFCARLLRNQPGESYAMDYWGQGTLVTVSS VL: DVVMTQTPLSLSVTPGQPASISCRSSQSLVHSNGYTYLHWYLQKPGQSPQLLIYKVSNRFSGVPDRFSGSGSGTDFTLKISRVEAEDLGVYFCSQSTRVPYTFGQGTKLEIK | 78 |
| AL2p-h24 (antibody, IgG1, V domains shown, IgG1; Fab in monovalent BLI) VH: QVQLVQSGAEVVKPGASLKISCKASGYAFSSSWMNWVRQAPGQGLEWIGRIYPGDGDTNYNQKFQGRATLTADTSTSTAYMELSSLRSEDTAVYFCARLLRNQPGESYAMDYWGQGALVTVSS VL: DVVMTQTPLSLSVTPGQPASISCRSSQSLVHSNGYTYLHWYLQKPGQSPQLLIYKVSNRFSGVPDRFSGSGSGTDFTLKISRVEAEDLGVYFCSQSTRVPYTFGQGTKLEIK | 69 |
| AL2p-h50 (antibody, IgG1, V domains shown, IgG1; Fab in monovalent BLI) VH: QVQLVQSGAEVKKPGSSVKVSCKASGYAFSSSWMNWVRQAPGQGLEWMGRIYPGDGDTNYAQKFQGRVTITADESTSTAYMELSSLRSEDTAVYYCARLLRNQPGESYAMDYWGQGTLVTVSS VL: DVVMTQTPLSLSVTPGQPASISCRSSQSLVHSNGYTYLHWYLQKPGQSPQLLIYKVSNRFSGVPDRFSGSGSGTDFTLKISRVEAEDVGVYYCSQSTRVPYTFGQGTKLEIK | 78 |
| AL2p-h47 (antibody, IgG1, V domains shown, IgG1; Fab in monovalent BLI) VH: QVQLVQSGAEVKKPGASVKVSCKASGYAFSSSWMNWVRQAPGQGLEWMGRIYPGDGDTNYNGEFRVRVTMTRDTSTSTVYMELSSLRSEDTAVYYCARLLRNQPGESYAMDYWGQGTLVTVSS VL: DVVMTQTPLSLSVTPGQPASISCRSSQSLVHSNGYTYLHWYLQKPGQSPQLLIYKVSNRFSGVPDRFSGSGSGTDFTLKISRVEAEDVGVYYCSQSTRVPYTFGQGTKLEIK | 93 |
| AL2p-h30 (antibody, IgG1, V domains shown, IgG1; Fab in monovalent BLI) VH: QVQLVQSGAEVKKPGASVKVSCKASGYAFSSSWMNWVRQAPGQGLEWMGRIYPGDGDTNYAQKFQGRVTMTADTSTSTAYMELSSLRSEDTAVYYCARLLRNQPGESYAMDYWGQGTLVTVSS VL: DVVMTQTPLSLSVTPGQPASISCRSSQSLVHSNGYTYLHWYLQKPGQSPQLLIYKVSNRFSGVPDRFSGSGSGTDFTLKISRVEAEDLGVYFCSQSTRVPYTFGQGTKLEIK | 88 |
| AL2p-h42 (antibody, IgG1, V domains shown, IgG1; Fab in monovalent BLI) VH: QVQLVQSGAEVKKPGASVKVSCKASGYAFSSSWMNWVRQAPGQRLEWMGRIYPGDGDTNYAQKFQGRVTITRDTSASTAYMELSSLRSEDTAVYYCARLLRNQPGESYAMDYWGQGTLVTVSS VL: DVVMTQTPLSLSVTPGQPASISCRSSQSLVHSNGYTYLHWYLQKPGQSPQLLIYKVSNRFSGVPDRFSGSGSGTDFTLKISRVEAEDVGVYYCSQSTRVPYTFGQGTKLEIK | 79 |
| AL2p-h34 (antibody, IgG1, V domains shown, IgG1; Fab in monovalent BLI) VH: QVQLVQSGAEVKKPGSSVKVSCKASGYAFSSSWMNWVRQAPGQGLEWIGRIYPGDGDTNYAQKFQGRATITADTSTSTAYMELSSLRSEDTAVYFCARLLRNQPGESYAMDYWGQGTLVTVSS VL: DVVMTQTPLSLSVTPGQPASISCRSSQSLVHSNGYTYLHWYLQKPGQSPQLLIYKVSNRFSGVPDRFSGSGSGTDFTLKISRVEAEDLGVYFCSQSTRVPYTFGQGTKLEIK | 84 |
| AL2p-h44 (antibody, IgG1, V domains shown, IgG1; Fab in monovalent BLI) VH: QVQLVQSGAEVKKPGASLKVSCKASGYAFSSSWMNWVRQAPGQRLEWIGRIYPGDGDTNYAQKFQGRATLTADTSASTAYMELSSLRSEDTAVYFCARLLRNQPGESYAMDYWGQGTLVTVSS VL: DVVMTQTPLSLSVTPGQPASISCRSSQSLVHSNGYTYLHWYLQKPGQSPQLLIYKVSNRFSGVPDRFSGSGSGTDFTLKISRVEAEDVGVYYCSQSTRVPYTFGQGTKLEIK | 80 |
| AL2p-h33 (antibody, IgG1, V domains shown, IgG1; Fab in monovalent BLI) VH: QVQLVQSGAEVKKPGSSVKVSCKASGYAFSSSWMNWVRQAPGQGLEWIGRIYPGDGDTNYAQKFQGRATLTADTSTTTAYMELSSLRSEDTAVYFCARLLRNQPGESYAMDYWGQGTLVTVSS VL: DVVMTQTPLSLSVTPGQPASISCRSSQSLVHSNGYTYLHWYLQKPGQSPQLLIYKVSNRFSGVPDRFSGSGSGTDFTLKISRVEAEDLGVYFCSQSTRVPYTFGQGTKLEIK | 74 |
| AL2p-h59 (antibody, IgG1, V domains shown, IgG1; Fab in monovalent BLI) VH: QVQLVQSGAEVKKPGASVKVSCKASGYAFSSSWMNWVRQAPGQRLEWMGRIYPGDGDTNYAQKFQGRVTITRDTSASTAYMELSSLRSEDTAVYYCARLLRNQPGESYAMDYWGQGTLVTVSS VL: DIVMTQSPLSLPVTPGEPASISCRSSQSLVHSNGYTYLHWYLQKPGQSPQLLIYKVSNRFSGVPDRFSGSGSGTDFTLKISRVEAEDVGVYYCSQSTRVPYTFGGGTKVEIK | 69 |
| AL2p-h21 (antibody, IgG1, V domains shown, IgG1; Fab in monovalent BLI) VH: QVQLVQSGAEVKKPGASVKVSCKASGYAFSSSWMNWVRQAPGQGLEWMGRIYPGDGDTNYAQKFQGRVTMTRDTSTSTVYMELSSLRSEDTAVYYCARLLRNQPGESYAMDYWGQGTLVTVSS VL: DVVMTQTPLSLSVTPGQPASISCRSSQSLVHSNGYTYLHWYLQKPGQSPQLLIYKVSNRFSGVPDRFSGSGSGTDFTLKISRVEAEDLGVYFCSQSTRVPYTFGQGTKLEIK | 76 |
| AL2p-h35 (antibody, IgG1, V domains shown, IgG1; Fab in monovalent BLI) VH: QVQLVQSGAEVKKPGSSVKVSCKASGYAFSSSWMNWVRQAPGQGLEWMGRIYPGDGDTNYAQKFQGRATITADTSTSTAYMELSSLRSEDTAVYYCARLLRNQPGESYAMDYWGQGTLVTVSS VL: DVVMTQTPLSLSVTPGQPASISCRSSQSLVHSNGYTYLHWYLQKPGQSPQLLIYKVSNRFSGVPDRFSGSGSGTDFTLKISRVEAEDLGVYFCSQSTRVPYTFGQGTKLEIK | 69 |
| AL2p-h19 (antibody, IgG1, V domains shown, IgG1; Fab in monovalent BLI) VH: QVQLVQSGAEVKKPGSSVKVSCKASGYAFSSSWMNWVRQAPGQGLEWMGRIYPGDGDTNYAQKFQGRATITADTSTSTAYMELSSLRSEDTAVYYCARLLRNQPGESYAMDYWGQGTLVTVSS VL: DIVMTQTPLSLSVTPGQPASISCRSSQSLVHSNGYTYLHWYLQKPGQSPQLLIYKVSNRFSGVPDRFSGSGSGTDFTLKISRVEAEDVGVYYCSQSTRVPYTFGQGTKLEIK | 87 |
| AL2p-h26 (antibody, IgG1, V domains shown, IgG1; Fab in monovalent BLI) VH: QVQLVQSGAEVKKPGASVKVSCKASGYAFSSSWMNWVRQAPGQRLEWIGRIYPGDGDTNYAQKFQGRVTITADTSASTAYMELSSLRSEDTAVYYCARLLRNQPGESYAMDYWGQGTLVTVSS VL: DVVMTQTPLSLSVTPGQPASISCRSSQSLVHSNGYTYLHWYLQKPGQSPQLLIYKVSNRFSGVPDRFSGSGSGTDFTLKISRVEAEDLGVYFCSQSTRVPYTFGQGTKLEIK | 78 |
| AL2p-h23 (antibody, IgG1, V domains shown, IgG1; Fab in monovalent BLI) VH: QVQLVQSGAEVKKPGASLKISCKASGYAFSSSWMNWVRQAPGQGLEWIGRIYPGDGDTNYAQKFQGRATLTADTSTSTAYMELSSLRSEDTAVYYCARLLRNQPGESYAMDYWGQGALVTVSS VL: DVVMTQTPLSLSVTPGQPASISCRSSQSLVHSNGYTYLHWYLQKPGQSPQLLIYKVSNRFSGVPDRFSGSGSGTDFTLKISRVEAEDLGVYFCSQSTRVPYTFGQGTKLEIK | 76 |
| AL2p-h22 (antibody, IgG1, V domains shown, IgG1; Fab in monovalent BLI) VH: QVQLVQSGAEVKKPGASVKVSCKASGYAFSSSWMNWVRQAPGQGLEWIGRIYPGDGDTNYAQKFQGRVTMTADTSTSTVYMELSSLRSEDTAVYYCARLLRNQPGESYAMDYWGQGTLVTVSS VL: DVVMTQTPLSLSVTPGQPASISCRSSQSLVHSNGYTYLHWYLQKPGQSPQLLIYKVSNRFSGVPDRFSGSGSGTDFTLKISRVEAEDLGVYFCSQSTRVPYTFGQGTKLEIK | 61 |
| AL2p-h25 (antibody, IgG1, V domains shown, IgG1; Fab in monovalent BLI) VH: QVQLVQSGAEVKKPGASLKISCKASGYAFSSSWMNWVRQAPGQGLEWIGRIYPGDGDTNYNGEFRVRATLTADTSTSTAYMELSSLRSEDTAVYYCARLLRNQPGESYAMDYWGQGALVTVSS VL: DVVMTQTPLSLSVTPGQPASISCRSSQSLVHSNGYTYLHWYLQKPGQSPQLLIYKVSNRFSGVPDRFSGSGSGTDFTLKISRVEAEDLGVYFCSQSTRVPYTFGQGTKLEIK | 90 |
| AL2p-h32 (antibody, IgG1, V domains shown, IgG1; Fab in monovalent BLI) VH: QVQLVQSGAEVKKPGSSVKVSCKASGYAFSSSWMNWVRQAPGQGLEWIGRIYPGDGDTNYNGEFRVRATLTADTSTTTAYMELSSLRSEDTAVYFCARLLRNQPGESYAMDYWGQGTLVTVSS VL: DVVMTQTPLSLSVTPGQPASISCRSSQSLVHSNGYTYLHWYLQKPGQSPQLLIYKVSNRFSGVPDRFSGSGSGTDFTLKISRVEAEDLGVYFCSQSTRVPYTFGQGTKLEIK | 81 |
